These results are taken from article PMC9330763.

This assay deals with SAd36 fiber-T4 fibritin-SpT (simian (chimpanzee) adenovirus species E serotype 36 (SAd36) | bacteriophage T4). Description: SDS-PAGE without boiling.

Usually stoichiometry N stands for a count of units in the complex or per binding partner. With SAd36 fiber-T4 fibritin-SpT, the stoichiometry N came out at 3.
